Reference: patent US20130309246A1

Biological target: Notch (Notch pathway receptors) in MC3T3-E1 murine osteoblasts (mouse)
Test: cell-based or functional assay

Notch activity (firefly luciferase Notch reporter in MC3T3-E1 osteoblasts cocultured with JAG1 OE tumor cells): 6 fold
Substance: human JAGGED1 overexpressed in SCP28 breast cancer cells (JAG1 OE tumor cells) (from UniProt P78504 34-1218) (ligand)
